Earlier results, collected in paper PMC8990303.
Read-outs that look alike come from different tables or passages of the source.

Experiments:
[1] = biological target: Yellow mealworm alpha-amylase (TMA) (Tenebrio molitor) (UniProt P56634)
[2] = biological target: Porcine pancreatic alpha-amylase (PPA) (Sus scrofa) (UniProt P00690)
[3] = biological target: Human salivary alpha-amylase (HSA) (Homo sapiens) (UniProt P0DUB6)
[4] = biological target: Yellow mealworm alpha-amylase (TMA) (Tenebrio molitor) (UniProt P56634); remark: listed apart in the source
[5] = biological target: Porcine alpha-amylase (Sus scrofa) (UniProt P00690)
[6] = biological target: Porcine alpha-amylase (Sus scrofa) (UniProt P00690); remark: listed apart in the source
[7] = biological target: Porcine trypsin (Sus scrofa) (UniProt P00761)
Chain of UniProt P00761 (P00761 9-231): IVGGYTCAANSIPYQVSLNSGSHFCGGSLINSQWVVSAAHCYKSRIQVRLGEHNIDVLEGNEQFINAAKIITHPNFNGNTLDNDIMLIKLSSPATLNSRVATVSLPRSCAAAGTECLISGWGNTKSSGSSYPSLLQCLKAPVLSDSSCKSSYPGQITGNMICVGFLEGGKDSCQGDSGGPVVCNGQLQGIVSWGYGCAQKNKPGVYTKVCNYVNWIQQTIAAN

[8] = biological target: Porcine trypsin (Sus scrofa) (UniProt P00761); remark: listed apart in the source
[9] = biological target: Factor XIIa (Homo sapiens) (UniProt P00748)
Chain of UniProt P00748 (P00748 whole entry, looked up): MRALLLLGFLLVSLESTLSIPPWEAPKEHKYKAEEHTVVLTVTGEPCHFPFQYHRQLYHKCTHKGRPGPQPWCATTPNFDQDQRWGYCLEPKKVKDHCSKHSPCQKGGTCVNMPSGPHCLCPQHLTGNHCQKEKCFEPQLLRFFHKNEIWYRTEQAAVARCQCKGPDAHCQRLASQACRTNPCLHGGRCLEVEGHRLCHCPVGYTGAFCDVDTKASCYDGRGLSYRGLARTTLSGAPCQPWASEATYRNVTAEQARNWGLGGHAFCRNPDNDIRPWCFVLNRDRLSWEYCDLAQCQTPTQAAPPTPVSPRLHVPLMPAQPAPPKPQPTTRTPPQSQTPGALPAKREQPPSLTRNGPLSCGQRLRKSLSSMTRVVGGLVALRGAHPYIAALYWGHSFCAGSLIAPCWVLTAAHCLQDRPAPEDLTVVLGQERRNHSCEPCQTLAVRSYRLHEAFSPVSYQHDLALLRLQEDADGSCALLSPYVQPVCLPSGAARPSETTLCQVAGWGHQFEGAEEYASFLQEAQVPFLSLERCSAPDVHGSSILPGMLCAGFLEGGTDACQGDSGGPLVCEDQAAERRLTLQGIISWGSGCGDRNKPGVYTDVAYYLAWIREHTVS

[10] = biological target: Bovine pancreatic trypsin (Bos taurus) (UniProt P00760)
[11] = biological target: Factor XIa (Homo sapiens) (UniProt P03951)
Chain of UniProt P03951 (P03951 388-625): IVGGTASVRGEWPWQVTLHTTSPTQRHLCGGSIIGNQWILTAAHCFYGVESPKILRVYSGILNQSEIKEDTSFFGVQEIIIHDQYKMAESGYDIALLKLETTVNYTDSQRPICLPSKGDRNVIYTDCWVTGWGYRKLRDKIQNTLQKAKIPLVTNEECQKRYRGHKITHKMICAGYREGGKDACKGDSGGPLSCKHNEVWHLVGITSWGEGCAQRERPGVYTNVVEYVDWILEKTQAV

[12] = biological target: Porcine pancreatic alpha-amylase (PPA) (Sus scrofa) (UniProt P00690); remark: listed apart in the source
[13] = biological target: Bovine trypsin (Bos taurus) (UniProt P00760)

Chain of UniProt P56634 (P56634 whole entry): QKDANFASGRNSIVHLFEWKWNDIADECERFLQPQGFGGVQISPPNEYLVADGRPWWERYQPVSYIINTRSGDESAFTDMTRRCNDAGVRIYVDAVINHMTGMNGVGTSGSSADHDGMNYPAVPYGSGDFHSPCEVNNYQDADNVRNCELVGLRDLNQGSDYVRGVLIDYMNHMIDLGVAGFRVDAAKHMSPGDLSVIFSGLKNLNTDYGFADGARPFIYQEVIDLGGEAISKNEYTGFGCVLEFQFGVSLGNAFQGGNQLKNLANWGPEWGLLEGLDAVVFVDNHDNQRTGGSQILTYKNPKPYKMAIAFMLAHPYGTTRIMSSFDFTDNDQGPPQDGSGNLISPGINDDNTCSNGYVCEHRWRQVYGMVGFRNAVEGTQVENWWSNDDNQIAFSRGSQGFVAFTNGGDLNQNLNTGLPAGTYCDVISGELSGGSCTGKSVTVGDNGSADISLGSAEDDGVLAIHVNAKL
Chain of UniProt P0DUB6 (P0DUB6 16-511): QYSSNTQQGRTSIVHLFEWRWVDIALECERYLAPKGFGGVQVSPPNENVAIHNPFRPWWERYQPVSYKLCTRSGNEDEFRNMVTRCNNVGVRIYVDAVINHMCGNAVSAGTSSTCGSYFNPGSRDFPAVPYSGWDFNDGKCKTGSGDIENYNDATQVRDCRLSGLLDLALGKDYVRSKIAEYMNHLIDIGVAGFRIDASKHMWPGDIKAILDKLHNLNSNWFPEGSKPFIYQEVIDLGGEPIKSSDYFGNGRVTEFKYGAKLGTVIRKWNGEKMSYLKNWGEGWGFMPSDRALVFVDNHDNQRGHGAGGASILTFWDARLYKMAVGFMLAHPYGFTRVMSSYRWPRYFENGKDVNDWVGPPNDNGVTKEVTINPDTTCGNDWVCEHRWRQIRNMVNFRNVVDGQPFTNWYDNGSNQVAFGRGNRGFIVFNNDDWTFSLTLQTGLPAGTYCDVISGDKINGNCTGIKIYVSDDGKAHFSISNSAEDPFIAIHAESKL

Q: For “0.28 alpha-amylase inhibitor (WMAI-1) (from UniProt P01083)”, which Ki [1] is on record?
A: Its Ki is 0.13 nM.

Q: With “0.19 alpha-amylase inhibitor (from UniProt P01085)” as the substance, how does the Ki [2] read?
A: Its Ki is 57.3 nM.

Q: What about the Ki [3] of the same substance?
A: The Ki was 0.29 nM.

Q: And the Ki [4]?
A: Its Ki is 0.85 nM.

Q: Which Ki [5] does the source give for CM3 (from UniProt P17314) here?
A: The Ki was 600 nM.

Q: And the Kd [6]?
A: Its Kd is 340 nM.

Q: And the Ki [7]?
A: Its Ki is 10.4 nM.

Q: What about the Kd [8] of the same substance?
A: Its Kd is 36 nM.

Q: Which Ki [9] does the source give for “Corn Hageman factor inhibitor (CHFI) (from UniProt P01088)” here?
A: The Ki was 1 nM.

Q: And the Ki [10]?
A: Its Ki is 2.1 nM.

Q: What about the Ki [11] of the same substance?
A: Its Ki is 5400 nM.

Q: With “Ragi bifunctional alpha-amylase/trypsin inhibitor (RBI) (from UniProt P01087)” as the substance, how does the Ki [12] read?
A: Its Ki is 11 nM.

Q: And the Ki [13]?
A: Its Ki is 1.2 nM.
